Laboratory results from US6699869.

Target: T1, (D)FPR-PNA
T1 chain: FPR

B1: human Factor VIIa (FVIIa) and human tissue factor (TF) complex (protein)
chain 1: ANAFLEELRPGSLERECKEEQCSFEEAREIFKDAERTKLFWISYSDGDQCASSPCQNGGSCKDQLQSYICFCLPAFEGRNCETHKDDQLICVNENGGCEQYCSDHTGTKRSCRCHEGYSLLADGVSCTPTVEYPCGKIPILEKRNASKPQGRIVGGKVCPKGECPWQVLLLVNGAQLCGGTLINTIWVVSAAHCFDKIKNWRNLIAVLGEHDLSEHDGDEQSRRVAQVIIPSTYVPGTTNHDIALLRLHQPVVLTDHVVPLCLPERTFSERTLAFVRFSLVSGWGQLLDRGATALELMVLNVPRLMTQDCLQQSRKVGDSPNITEYMFCAGYSDGSKDSCKGDSGGPHATHYRGTWYLTGIVSWGQGCATVGHFGVYTRVSQYIEWLQKLMRSEPRPGVLLRAPFP
chain 2: SGTTNTVAAYNLTWKSTNFKTILEWEPKPVNQVYTVQISTKSGDWKSKCFYTTDTECDLTDEIVKDVKQTYLARVFSYPAGNVESTGSAGEPLYENSPEFTPYLETNLGQPTIQSFEQVGTKVNVTVEDERTLVRRNNTFLSLRDVFGKDLIYTLYYWKSSSSGKKTAKTNTNEFLIDVDKGENYCFSVQAVIPSRTVNRKSTDSPVECMGQEKGEFRE
Kcat/KM of substrate hydrolysis: Factor VII: Kcat/KM=1.27×10^4 M^-1 S^-1
